These results are taken from patent US20060045876A1 (LUDWIG INSTITUTE FOR CANCER RESEARCH, published 2006).

One assay deals with G250 antigen (UniProt Q16790 38-459). In words: flow cytometry (FACS) on G250 positive tumor cells.
The target of the next assay is T1, recombinant human GM-CSF (human, UniProt P04141 18-144).
T1 construct: also called rhGM-CSF
The experiment in a line: SPR (BIAcore 2000), rhGM-CSF on the chip, global fitting of Rmax. As for the experimental part: Biosensor analyses were carried out using a commercially available, BIAcore 2000, and a carboxymethyldetran coated sensor chip. The chip was derivatized with 1000, 300, or 100 RVs of recombinant human GM-CSF, on channels 1, 2, and 3 of the machine using standard amine coupling chemistry with channel 4 retained as the control blank channel.
After injection, dissociation was monitored by allowing HBS buffer to flow over the chip surface for 5 minutes. Any bound antibody was then eluted, and the chip surface was regenerated, between samples, via injecting 40 μl of 100 mM HCl, pH 2.7, at a rate of 5 μl/min.
A general note: SPR reads the build-up and loss of mass on a sensor chip optically.

T1 sequence (P04141 18-144 limits assumed): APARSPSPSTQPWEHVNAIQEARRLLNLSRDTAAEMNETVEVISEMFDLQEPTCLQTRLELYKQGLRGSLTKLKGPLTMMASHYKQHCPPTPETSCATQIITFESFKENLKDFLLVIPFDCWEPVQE

B1: chimeric G250 antibody (antibody, V domains shown)
VH: DVKLVESGAALVKLGGSLKLSCAASGFTFSNYYMSWVRQTPEKRLELVAAINSDGGITYYLDTVKGRFTISRDNAKNTLYLQMSSLKSEDTALFYCARHRSGYFSMDYWGQGTSVTVSS
VL: DIVMTQSQRFMSTTVGDRVSITCKASQNVVSAVAWYQQKPGQSPKLLIYSASNRYTGVPDRFTGSGSGTDFTLTISNMQSEDLADFFCQQYSNYPWTFGGGTKLEIKR
notes: Used as positive control in FACS; Its making is not described apart from this
As to B1, the binding result with G250 antigen was “binds”.

B2: chimeric 19/2 anti-human GM-CSF monoclonal antibody (antibody, V domains shown)
VH: EVQLQQSGPELVKPGASVKISCKASGYTFTDYNIHWVKQSHGKSLDWIGYIAPYSGGTGYNQEFKNRATLTVDKSSSTAYMELRSLTSDDSAVYYCARRDRFPYFDYWGQGTTLRVSS
VL: DIVMIQSQKFVSTSVGDRVNITCKASQNVGSNVAWLQQKPGQSPKTLIYSASYRSGRVPDRFTGSGSGTDFILTITTVQSEDLAEYFCQQFNRSPLTFGSGTKLELKR
notes: made in CHO DG44 cells; also called chimeric 19/2 antibody; ch19/2
As to B2, in the assay with recombinant human GM-CSF, the Ka was 2.69e+10 M⁻¹ and the koff (in general, the rate constant with which the complex falls apart) worked out at 1.9e-05 s⁻¹.
